The results in this text go back to publication PMC12075686, “Structural basis of phosphorylation-independent nuclear import of CIRBP by TNPO3” (Nature Communications, 2025).

Where “and” joins values, the source holds several entries; their conditions need not be identical. Equal values may be shown once. Non-standard residues stand in square brackets, D forms with d. No end group written: not given here. pS = N[C@@H](COP(=O)(O)O)C(=O)O

In general, Kd refers to the equilibrium constant for the complex coming apart.

The target in assay [1] is T1, Transportin 3 (TNPO3), full-length wild type (human, UniProt Q9Y5L0 1-923).
T1 construct: Transportin 3 (TNPO3), human, full-length wild type; For the NMR experiments made 15N-labelled with 13C-methyl labelling of isoleucine and methionine side chains ([IM-methyl 13C]); Vector pETM11-His6-protein A with a TEV site downstream of the protein A tag; also called TNPO3 WT; TNPO3 FL WT; source: E. coli BL21-(DE3) Star, purified (Ni-NTA, TEV cleavage, second Ni-NTA, SEC Superdex 200); not …
T1 sequence (looked up): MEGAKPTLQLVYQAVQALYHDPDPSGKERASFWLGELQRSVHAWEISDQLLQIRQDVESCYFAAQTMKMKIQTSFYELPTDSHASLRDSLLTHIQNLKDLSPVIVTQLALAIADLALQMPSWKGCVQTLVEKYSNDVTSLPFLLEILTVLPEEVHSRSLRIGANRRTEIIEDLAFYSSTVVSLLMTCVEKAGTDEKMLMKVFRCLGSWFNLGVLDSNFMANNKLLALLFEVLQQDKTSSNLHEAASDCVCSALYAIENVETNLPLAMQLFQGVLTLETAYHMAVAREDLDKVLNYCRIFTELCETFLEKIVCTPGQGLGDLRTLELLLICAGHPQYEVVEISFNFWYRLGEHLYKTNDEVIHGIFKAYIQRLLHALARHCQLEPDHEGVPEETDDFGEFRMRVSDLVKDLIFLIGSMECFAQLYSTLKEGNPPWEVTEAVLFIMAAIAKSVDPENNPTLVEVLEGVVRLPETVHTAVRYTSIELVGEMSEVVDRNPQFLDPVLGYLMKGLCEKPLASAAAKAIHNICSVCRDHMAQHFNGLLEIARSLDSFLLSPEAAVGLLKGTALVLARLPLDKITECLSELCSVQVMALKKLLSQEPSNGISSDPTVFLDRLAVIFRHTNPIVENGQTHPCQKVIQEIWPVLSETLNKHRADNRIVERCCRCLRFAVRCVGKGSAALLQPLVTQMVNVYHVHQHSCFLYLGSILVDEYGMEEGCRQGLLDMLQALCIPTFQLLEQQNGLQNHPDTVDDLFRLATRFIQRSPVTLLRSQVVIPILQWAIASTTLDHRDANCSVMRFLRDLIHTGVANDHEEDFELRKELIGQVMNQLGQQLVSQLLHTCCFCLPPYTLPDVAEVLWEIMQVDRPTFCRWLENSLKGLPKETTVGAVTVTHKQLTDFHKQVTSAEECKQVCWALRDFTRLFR
In words: NMR titration; 1H NMR spectra of 50 µM peptide free and with a stoichiometric amount (50 µM) of TNPO3 WT; line broadening of peptide signals. As to conditions: both partners purified.

The target of assay [2] is T2, Transportin 3 (TNPO3) C511A mutant (human, UniProt Q9Y5L0 1-923, C511A).
T2 sequence: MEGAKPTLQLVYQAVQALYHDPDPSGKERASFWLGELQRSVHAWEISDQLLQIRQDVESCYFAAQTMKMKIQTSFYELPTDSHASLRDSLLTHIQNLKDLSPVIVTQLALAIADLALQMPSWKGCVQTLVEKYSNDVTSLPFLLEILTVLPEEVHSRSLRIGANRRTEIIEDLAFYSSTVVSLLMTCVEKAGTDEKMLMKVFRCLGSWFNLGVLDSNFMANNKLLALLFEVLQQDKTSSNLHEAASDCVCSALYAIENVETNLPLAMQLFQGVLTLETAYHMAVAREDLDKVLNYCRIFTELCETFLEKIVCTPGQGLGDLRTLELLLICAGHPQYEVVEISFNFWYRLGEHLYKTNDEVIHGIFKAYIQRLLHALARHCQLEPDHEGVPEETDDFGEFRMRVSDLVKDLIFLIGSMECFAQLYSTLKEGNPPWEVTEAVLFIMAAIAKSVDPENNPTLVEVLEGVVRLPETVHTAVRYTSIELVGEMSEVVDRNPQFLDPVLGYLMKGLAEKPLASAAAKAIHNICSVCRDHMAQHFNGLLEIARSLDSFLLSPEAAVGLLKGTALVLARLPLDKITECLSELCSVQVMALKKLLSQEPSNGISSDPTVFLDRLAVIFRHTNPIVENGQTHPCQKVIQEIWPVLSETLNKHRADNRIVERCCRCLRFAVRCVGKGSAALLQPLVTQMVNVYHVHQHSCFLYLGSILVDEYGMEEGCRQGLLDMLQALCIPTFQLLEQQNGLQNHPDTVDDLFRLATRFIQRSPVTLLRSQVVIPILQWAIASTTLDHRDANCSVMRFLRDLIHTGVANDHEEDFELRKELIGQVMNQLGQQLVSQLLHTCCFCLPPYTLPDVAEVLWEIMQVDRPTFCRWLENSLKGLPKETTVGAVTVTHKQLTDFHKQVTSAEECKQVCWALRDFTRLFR
Put plainly: ITC.

For assay [3], the target named is T2, Transportin 3 (TNPO3) C511A mutant. In words: ITC; rep2. For orientation: ITC needs no label: the signal is the heat of the interaction.
The target of assay [4] is Transportin 3 (TNPO3) C511A mutant (human) (UniProt Q9Y5L0). Put plainly: ITC; 100 µM ligand in the syringe injected (28 x 10 µL) into 10 µM TNPO3 (WT or C511A) in the cell; 25 °C; 50 mM Tris-HCl pH 7.5, 150 mM NaCl, 2 mM TCEP, 0.04% NaN3.
For assay [5], the target named is T2, Transportin 3 (TNPO3) C511A mutant. In words: ITC. The source holds these as a separate data set.
In assay [6] the target is T3, Transportin 3 (TNPO3), full-length wild type (human, UniProt Q9Y5L0 1-923).
T3 chain: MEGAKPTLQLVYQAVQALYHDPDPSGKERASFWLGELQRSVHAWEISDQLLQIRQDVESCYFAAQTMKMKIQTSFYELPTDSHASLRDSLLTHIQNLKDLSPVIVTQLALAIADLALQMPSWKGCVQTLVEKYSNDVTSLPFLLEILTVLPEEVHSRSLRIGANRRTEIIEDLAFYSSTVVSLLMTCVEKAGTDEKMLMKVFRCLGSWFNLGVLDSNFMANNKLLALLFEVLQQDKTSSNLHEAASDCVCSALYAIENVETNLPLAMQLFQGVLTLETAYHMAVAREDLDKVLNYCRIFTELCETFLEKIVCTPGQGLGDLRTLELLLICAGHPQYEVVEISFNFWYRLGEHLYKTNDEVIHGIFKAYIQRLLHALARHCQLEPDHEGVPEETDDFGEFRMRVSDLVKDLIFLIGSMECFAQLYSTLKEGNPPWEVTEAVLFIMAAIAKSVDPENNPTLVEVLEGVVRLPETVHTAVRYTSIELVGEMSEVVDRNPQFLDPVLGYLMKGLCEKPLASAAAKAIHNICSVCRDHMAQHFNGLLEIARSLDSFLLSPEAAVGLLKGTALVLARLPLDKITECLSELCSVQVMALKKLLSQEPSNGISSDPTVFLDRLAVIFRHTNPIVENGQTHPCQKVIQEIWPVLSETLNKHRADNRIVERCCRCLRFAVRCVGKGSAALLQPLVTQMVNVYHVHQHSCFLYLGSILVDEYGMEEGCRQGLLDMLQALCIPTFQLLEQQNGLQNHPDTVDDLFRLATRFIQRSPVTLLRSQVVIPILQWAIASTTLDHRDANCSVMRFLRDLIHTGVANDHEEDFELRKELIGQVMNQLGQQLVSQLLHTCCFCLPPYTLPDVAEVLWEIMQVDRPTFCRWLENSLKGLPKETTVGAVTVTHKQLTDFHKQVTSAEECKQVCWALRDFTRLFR
Put plainly: ITC; phosphorylated, rep2.

Assay [7] deals with T1, Transportin 3 (TNPO3), full-length wild …. In words: ITC; 100 µM ligand in the syringe injected (28 x 10 µL) into 10 µM TNPO3 (WT or C511A) in the cell; 25 °C; 50 mM Tris-HCl pH 7.5, 150 mM NaCl, 2 mM TCEP, 0.04% NaN3. As to conditions: both partners purified.
The target in assay [8] is T3, Transportin 3 (TNPO3), full-length wild …. In words: ITC; phosphorylated.

B1: RBM39 (86-101) synthetic peptide (peptide, UniProt Q14498 86-101, looked up)
peptide: SRDRRFRGRYRSPYSG
notes: also called RBM39^RSY (86–101); source: synthetic peptide (Peptide Specialty Laboratories GmbH)
B1: the binding result in assay [1] was “binds”.

B2: CIRBP (157-172) synthetic peptide, wild type (peptide)
peptide: GGSYRDSYDSYATHNE
notes: also called mCIRBP^RSY; source: synthetic peptide (Peptide Specialty Laboratories GmbH)
Regarding B2, the Kd in assay [2] is 6.2 µM and 4.24 µM; in assay [3], 6.2 µM; in assay [4], 5.78 µM; in assay [5] it was 1.18 µM. Further, the binding result in assay [1] is “binds”.

B3: Phosphorylated RSY region of CIRBP (138-172), phosphorylated in vitro by SRPK1 (domain or fragment, human, UniProt Q14011 138-172, looked up)
chain: SRDYYSSR[pS]Q[pS]GGY[pS]DRSSGGSYRDSYDSYATHNE
notes: also called pCIRBP^RSY; phosphorylated CIRBP^RSY; source: E. coli BL21-(DE3) Star, purified; phosphorylated in vitro with recombinant SRPK1 and ATP overnight, isolated by SEC (Superdex 30 Increase); not shown: His6, N-terminal, cleaved; protein A, N-terminal, cleaved
For the molecule B3, the Kd in assay [6] is 2.54 µM; in assay [7], 5.99 µM; in assay [8], 2.54 µM.

B4: P5CS (3-20) synthetic peptide (peptide, UniProt P54886 3-20, looked up)
peptide: SQVYRCGFQPFNQHLLPW
notes: Delta-1-pyrroline-5-carboxylate synthase (P5CS), human, residues 3-20; also called P5CS^RSY (3–20); delta-1-pyrroline-5-carboxylate synthase; source: synthetic peptide (Peptide Specialty Laboratories GmbH)
In the case of B4, the binding result in assay [1] was “binds”.
